The values below come from publication PMC10411625, “Rationally designed stapled peptides allosterically inhibit PTBP1–RNA-binding” (Chemical Science, 2023).

The nature of the data set: circular dichroism. To be noted: 20 mM sodium phosphate, 10 mM NaF; pH 8; 20 °C; 50 uM. (CD spectra are sensitive to the conformation of chiral molecules.)
On to `CC(=O)N[C@@H](CC(N)=O)C(=O)N[C@@H](CCC(N)=O)C(=O)N[C@@]1(C)CCCC=CCCC[C@]2(CCCC=CCCC[C@](C)(C(=O)N[C@H](C(=O)N[C@@H](CC(=O)O)C(N)=O)C(C)C)NC(=O)[C@H](CCC(N)=O)NC(=O)[C@H](CC(C)C)NC(=O)[C@H](C)NC2=O)NC(=O)[C@H](CCC(N)=O)NC(=O)[C@H](C)NC(=O)[C@H](CCCNC(=N)N)NC1=O`, for which the helicity came out at 98.2%. The result for `CC(=O)N[C@@H](CC(N)=O)C(=O)N[C@@H](CCC(N)=O)C(=O)N[C@@]1(C)CCCC=CCCC[C@]2(CCCC=CCCC[C@](C)(C(=O)N[C@H](C(=O)N[C@@H](CC(N)=O)C(N)=O)C(C)C)NC(=O)[C@H](CCC(N)=O)NC(=O)[C@H](CC(N)=O)NC(=O)[C@H](C)NC2=O)NC(=O)[C@H](CCC(N)=O)NC(=O)[C@H](C)NC(=O)[C@H](CCCNC(=N)N)NC1=O` reads 100%; that for `CC(=O)N[C@@H](CC(N)=O)C(=O)N[C@@H](CCC(N)=O)C(=O)N[C@@]1(C)CCCC=CCCC[C@]2(CCCC=CCCC[C@](C)(C(=O)N[C@H](C(=O)N[C@@H](CC(N)=O)C(N)=O)C(C)C)NC(=O)[C@H](CCC(N)=O)NC(=O)[C@H](CC(C)C)NC(=O)[C@H](C)NC2=O)NC(=O)[C@H](CCC(N)=O)NC(=O)[C@H](C)NC(=O)[C@H](CCCNC(=N)N)NC1=O`, 100%; that for `CC(=O)N[C@@H](CC(N)=O)C(=O)N[C@@H](CCC(N)=O)C(=O)N[C@@H](C)C(=O)N[C@@H](CCCNC(=N)N)C(=O)N[C@@H](C)C(=O)N[C@@H](CCC(N)=O)C(=O)N[C@@]1(C)CCCCCCCC[C@@](C)(C(=O)N[C@H](C(=O)N[C@@H](CC(N)=O)C(N)=O)C(C)C)NC(=O)[C@H](CCC(N)=O)NC(=O)[C@H](CC(C)C)NC(=O)[C@H](C)NC1=O`, 57.8%. The result for Ac-NQARAQAALQAVNR-NH2 reads 20.2%; that for `CC(=O)N[C@@H](CC(N)=O)C(=O)N[C@@H](CCC(N)=O)C(=O)N[C@@H](C)C(=O)N[C@@H](CCCNC(=N)N)C(=O)N[C@@H](C)C(=O)N[C@@]1(C)CCCCCCCC[C@@](C)(C(=O)N[C@@H](C)C(=O)N[C@H](C(=O)N[C@@H](CC(N)=O)C(N)=O)C(C)C)NC(=O)[C@H](CC(C)C)NC(=O)[C@H](C)NC(=O)[C@H](C)NC1=O`, 77.3%. To `CC(=O)N[C@@H](CC(N)=O)C(=O)N[C@@H](CCC(N)=O)C(=O)N[C@@]1(C)CCCCCCCC[C@@](C)(C(=O)N[C@@H](C)C(=O)N[C@@H](CC(C)C)C(=O)N[C@@H](CCC(N)=O)C(=O)N[C@@H](C)C(=O)N[C@H](C(=O)N[C@@H](CC(N)=O)C(N)=O)C(C)C)NC(=O)[C@H](CCC(N)=O)NC(=O)[C@H](C)NC(=O)[C@H](CCCNC(=N)N)NC1=O` belongs 92.3%; to `CC(=O)N[C@H](C(=O)N[C@@H](CCC(N)=O)C(=O)N[C@@]1(C)CCCC=CCCC[C@]2(CCCC=CCCC[C@](C)(C(=O)N[C@H](C(=O)N[C@@H](CC(N)=O)C(N)=O)C(C)C)NC(=O)[C@H](CCC(N)=O)NC(=O)[C@H](CC(C)C)NC(=O)[C@H](C)NC2=O)NC(=O)[C@H](CCC(N)=O)NC(=O)[C@H](C)NC(=O)[C@H](CCCNC(=N)N)NC1=O)C(C)C`, 100%. `CC(=O)N[C@@H](CC(N)=O)C(=O)N[C@@H](CCC(N)=O)C(=O)N[C@@]1(C)CCCC=CCCC[C@]2(CCCC=CCCC[C@](C)(C(=O)N[C@H](C(=O)N[C@@H](CC(N)=O)C(N)=O)C(C)C)NC(=O)[C@H](CCC(N)=O)NC(=O)[C@H](CC(C)C)NC(=O)[C@H](C)NC2=O)NC(=O)[C@H](CCC(N)=O)NC(=O)[C@H](C)NC(=O)[C@H](CCNC(=N)N)NC1=O` yielded a helicity of 100%.
